In publication PMC10954469, “Molecular and thermodynamic determinants of self-assembly and hetero-oligomerization in the enterobacterial thermo-osmo-regulatory protein H-NS” (Nucleic Acids Research, 2024):
Numbering of substitutions follows the chain as printed. Names and notes keep the numbering of the source.

T1: Cnu, co-repressor of the Hha family (E. coli, UniProt P64467 1-71)
T1 construct: Cnu, a member of the Hha family in E. coli; harbors a sole tryptophan (W67)
T1 sequence (looked up): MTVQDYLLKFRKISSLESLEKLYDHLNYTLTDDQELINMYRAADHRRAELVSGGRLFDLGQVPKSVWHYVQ

B1: H-NS (histone-like or heat-stable nucleoid structuring protein) (natural protein, E. coli (uropathogenic))
chain: MSEALKILNNIRTLRAQARECTLETLEEMLEKLEVVVNERREEESAAAAEVEERTRKLQQYREMLIADGIDPNELLNSLAAVKSGTKAKRAQRPAKYSYVDENGETKTWTGQGRTPAVIKKAMDEQGKSLDDFLIKQ
notes: H-NS from uropathogenic E. coli, whole protein as printed in the methods; Expressed as the fusion H-NS:intein:CBD and released by cleavage with beta-mercaptoethanol; also called WT H-NS; wild-type H-NS; source: E. coli BL21(DE3), pTXB1 vector, purified (chitin column, intein-mediated cleavage, Superdex 200 SEC)
B2: H-NS Y61E, phosphomimetic mutant (natural protein)
chain: B1 chain with Y61E
notes: H-NS from uropathogenic E. coli; also called Y61E mutant; source: E. coli BL21(DE3), pTXB1 vector, purified following identical protocols as H-NS
B3: H-NS (histone-like or heat-stable nucleoid structuring protein), wild type (natural protein, uropathogenic E. coli)
chain: B1 chain
notes: H-NS from uropathogenic E. coli, 137 residues as printed; Polydisperse in solution: monomers, dimers, tetramers and octamers; Expressed as H-NS:intein:CBD fusion; also called H-NS WT; wild-type H-NS; source: E. coli BL21(DE3), pTXB1 vector, purified (chitin column, intein cleavage, Superdex 200 SEC)
B4: H-NSm (W109F H-NS), tryptophan null variant of H-NS (natural protein)
chain: B1 chain with W109F
notes: H-NS from uropathogenic E. coli; also called H-NS tryptophan variant; source: E. coli BL21(DE3), pTXB1 vector, purified following identical protocols as H-NS
B5: Y61Em (Y61E/W109F H-NS) (natural protein)
chain: B1 chain with Y61E, W109F
notes: H-NS from uropathogenic E. coli; source: E. coli BL21(DE3), pTXB1 vector, purified following identical protocols as H-NS

What was measured:
[1] = target: the molecule itself; assay: AUC + other: differential scanning calorimetry; parameters of the thermodynamic model that best capture the AUC and DSC observations; defined at the reference temperature TO 333 K; 150 mM ionic strength, pH 7; tetramer to dimers and octamer to tetramers (one constant KO for both steps)
[2] = target: the molecule itself; assay: AUC + other: differential scanning calorimetry; thermodynamic model (octamer, tetramer, dimer, folded and unfolded monomer) whose parameters were set semi-quantitatively to match AUC populations (20 °C) and DSC thermograms; constant predicted by the model for 13 °C; 150 mM ionic strength, pH 7; dimer to monomers
[3] = target: the molecule itself; assay: AUC + other: differential scanning calorimetry; thermodynamic model set semi-quantitatively to match AUC populations (20 °C) and DSC thermograms; constant predicted by the model for 13 °C; 300 mM ionic strength, pH 7; tetramer to dimers and octamer to tetramers (one constant KO for both steps)
[4] = target: the molecule itself; assay: AUC + other: differential scanning calorimetry; parameters of the thermodynamic model that best capture the AUC and DSC observations; defined at the reference temperature TD 333 K; 150 mM ionic strength, pH 7; dimer to monomers
[5] = target: the molecule itself; assay: AUC + other: differential scanning calorimetry; thermodynamic model set semi-quantitatively to match AUC populations (20 °C) and DSC thermograms; constant predicted by the model for 37 °C; 300 mM ionic strength, pH 7; dimer to monomers
[6] = target: the molecule itself; assay: AUC + other: differential scanning calorimetry; parameters of the thermodynamic model that best capture the AUC and DSC observations; defined at the reference temperature TO 333 K; 300 mM ionic strength, pH 7; tetramer to dimers and octamer to tetramers (one constant KO for both steps)
[7] = target: the molecule itself; assay: AUC + other: differential scanning calorimetry; thermodynamic model set semi-quantitatively to match AUC populations (20 °C) and DSC thermograms; constant predicted by the model for 37 °C; 300 mM ionic strength, pH 7; tetramer to dimers and octamer to tetramers (one constant KO for both steps)
[8] = target: the molecule itself; assay: AUC + other: differential scanning calorimetry; thermodynamic model set semi-quantitatively to match AUC populations (20 °C) and DSC thermograms; constant predicted by the model for 13 °C; 300 mM ionic strength, pH 7; dimer to monomers
[9] = target: the molecule itself; assay: AUC + other: differential scanning calorimetry; thermodynamic model set semi-quantitatively to match AUC populations (20 °C) and DSC thermograms; constant predicted by the model for 25 °C; 300 mM ionic strength, pH 7; tetramer to dimers and octamer to tetramers (one constant KO for both steps)
[10] = target: the molecule itself; assay: AUC + other: differential scanning calorimetry; thermodynamic model set semi-quantitatively to match AUC populations (20 °C) and DSC thermograms; constant predicted by the model for 25 °C; 300 mM ionic strength, pH 7; dimer to monomers
[11] = target: the molecule itself; assay: AUC + other: differential scanning calorimetry; parameters of the thermodynamic model that best capture the AUC and DSC observations; defined at the reference temperature TD 333 K; 300 mM ionic strength, pH 7; dimer to monomers
[12] = target: the molecule itself; assay: AUC + other: differential scanning calorimetry; thermodynamic model set semi-quantitatively to match AUC populations (20 °C) and DSC thermograms; constant predicted by the model for 13 °C; 150 mM ionic strength, pH 7; tetramer to dimers and octamer to tetramers (one constant KO for both steps)
[13] = target: the molecule itself; assay: AUC; sedimentation velocity, 20°C, 150 mM ionic strength, pH 7, 15-200 μM protein, c(s) analysis with SEDFIT
[14] = target: the molecule itself; assay: AUC + other: differential scanning calorimetry; thermodynamic model brought into semi-quantitative agreement with AUC populations and DSC curves; 150 mM ionic strength, pH 7; constant at 25°C; tetramer to dimers and octamer to tetramers (one constant KO for both)
[15] = target: the molecule itself; assay: AUC + other: differential scanning calorimetry; thermodynamic model brought into semi-quantitative agreement with AUC populations and DSC curves; 150 mM ionic strength, pH 7; constant at 37°C; dimer to monomers
[16] = target: the molecule itself; assay: AUC + other: differential scanning calorimetry; thermodynamic model brought into semi-quantitative agreement with AUC populations and DSC curves; 150 mM ionic strength, pH 7; constant at 37°C; tetramer to dimers and octamer to tetramers (one constant KO for both)
[17] = target: the molecule itself; assay: AUC + other: differential scanning calorimetry; thermodynamic model brought into semi-quantitative agreement with AUC populations and DSC curves; 150 mM ionic strength, pH 7; constant at 25°C; dimer to monomers
[18] = target: T1, Cnu, co-repressor of the Hha family; assay: other fluorescence titration; tryptophan (W67) emission of 2 μM Cnu, excitation 295 nm, with 30 nM to 50 μM tryptophan-free H-NS variant; intensity-averaged wavenumber; Hill equation, apparent (K1/2); 300 mM ionic strength, pH 7, 25°C; settings: both partners purified
[19] = target: B3; assay: fluorescence polarisation; steady-state tryptophan (W109) anisotropy of 2 μM wild-type H-NS with 30 nM to 50 μM H-NSm, 150 mM ionic strength, pH 7, 13, 25 and 37°C; settings: both partners purified
[20] = target: T1, Cnu, co-repressor of the Hha family; assay: other fluorescence titration; tryptophan (W67) emission of 2 μM Cnu, excitation 295 nm, with 30 nM to 50 μM tryptophan-free H-NS variant; intensity-averaged wavenumber; Hill equation, apparent (K1/2); 150 mM ionic strength, pH 7, 25°C; settings: both partners purified

B1
Kd [1]: 100 µM | Kd [2]: 0.0238 µM | Kd [3]: 9.39 µM | Kd [4]: 1000 µM | Kd [5]: 13.6 µM | Kd [6]: 100 µM | Kd [7]: 34.5 µM | Kd [8]: 1.19 µM | Kd [9]: 18.5 µM | Kd [10]: 4.22 µM | Kd [11]: 100 µM | Kd [12]: 17 µM

B2
stoichiometry N [13]: 2

B3
Kd [14]: ~30 µM | Kd [15]: ~8 µM | Kd [16]: ~45 µM | Kd [17]: ~0.5 µM

B4
Kd [18]: 12 µM | binding result [19]: binds | Kd [20]: 4 µM

B5
Kd [20]: 1.6 µM
